# Test results published in patent US20120115880A1.
# Molecular target: p53 (endogenous wild-type p53 of human retinoblastoma cells and human fetal retinal cells) (human) (UniProt P04637)
# Assay: cell-based or functional assay
# Chain of p53 (endogenous wild-type p53 of human retinoblastoma cells and human fetal retinal cells) (human) (P04637 whole entry): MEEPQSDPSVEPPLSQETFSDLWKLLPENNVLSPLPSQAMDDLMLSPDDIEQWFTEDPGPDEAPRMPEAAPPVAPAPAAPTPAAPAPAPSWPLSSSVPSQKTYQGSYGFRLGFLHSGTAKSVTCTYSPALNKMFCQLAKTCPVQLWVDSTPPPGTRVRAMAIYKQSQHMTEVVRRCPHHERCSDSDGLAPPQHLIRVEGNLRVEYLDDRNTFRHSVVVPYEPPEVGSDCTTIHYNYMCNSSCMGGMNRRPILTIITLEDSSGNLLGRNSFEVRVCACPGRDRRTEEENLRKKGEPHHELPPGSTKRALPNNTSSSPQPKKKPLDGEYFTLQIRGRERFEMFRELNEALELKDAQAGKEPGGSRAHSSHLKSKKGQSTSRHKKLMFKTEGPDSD
substance,measurement,value
MDMX (ectopically expressed from the FLAG-tagged MDMX cDNA),luciferase activity of the p53 reporter construct PG13 in retinoblastoma (Y79) cells,19 fold
